Legend:
[1] = target: Epidermal growth factor receptor (EGFR) on tumor cell lines A-431, HCT-116 and HT-29 (human) (UniProt P00533); test: cell-based or functional assay
[2] = target: Human Vγ9Vδ2 T cell receptor on primary Vγ9Vδ2 T cells (human) (UniProt Q99603); test: cell-based or functional assay
[3] = target: T1, Epidermal growth factor receptor (EGFR) on tumor cell lines A-431, HCT-116 and HT-29 (human, UniProt P00533 25-1210); test: cell-based or functional assay
[4] = target: Human Vγ9Vδ2 T cell receptor on primary Vγ9Vδ2 T cells (human), Q99603; test: cell-based or functional assay
[5] = target: T1, Epidermal growth factor receptor (EGFR) …; test: cell-based ELISA on A-431 cells, anti-IgG1-HRP, signal at 450 nm
Description: (§1) To this end, tumor cells were first seeded at different concentrations on day-1 to reach a concentration of approximately 50000 cells/well on day 0. […] Bound antibodies were then labelled in a secondary incubation step with anti-IgG1-HRP for one hour at 37° C. The secondary antibody binding was then resolved by the addition of 3,3′,5,5′-Tetramethylbenzidine and the colorimetric change induced by the HRP, followed by the addition of H2SO4 to stop the reaction. The optical density (OD) was then measured in a UV spectrometer at a wavelength of 450 nm.

[6] = target: Human Vγ9Vδ2 T cell receptor on primary Vγ9Vδ2 T cells (human) (UniProt Q99603); test: flow cytometry on expanded primary human Vγ9Vδ2 T cells (two donors), labelled anti-IgG1 secondary antibody
[7] = target: T1, Epidermal growth factor receptor (EGFR) …; test: cell-based ELISA on HT29 cells, anti-IgG1-HRP, signal at 450 nm; EC50 table gives no unit, x axis is in nM
Description: as §1

[8] = target: T1, Epidermal growth factor receptor (EGFR) …; test: cell-based ELISA on HCT-116 cells, anti-IgG1-HRP, signal at 450 nm; EC50 table gives no unit, x axis is in nM
Description: as §1

[9] = target: T1, Epidermal growth factor receptor (EGFR) …; test: cell-based ELISA on EGFR-expressing A-431, HCT-116 and HT-29 cells, anti-IgG1-HRP, OD 450 nm; one EC50 given for all three cell lines A-431, HCT-116 and HT-29; 37° C
Description: as §1

[10] = target: Human Vγ9Vδ2 T cell receptor on primary Vγ9Vδ2 T cells (human) (UniProt Q99603); test: flow cytometry on expanded primary Vγ9Vδ2 T cells of donor D336 (panel 'Binding to D336 P3'), anti-IgG1 secondary, MFI (geometric mean); EC50 table beside the curve gives no unit, x axis is in nM
[11] = target: Human Vγ9Vδ2 T cell receptor on primary Vγ9Vδ2 T cells (human) (UniProt Q99603); test: flow cytometry on expanded primary Vγ9Vδ2 T cells of donor D339 (panel 'Binding to D339 P2'), anti-IgG1 secondary, MFI (geometric mean); EC50 table beside the curve gives no unit, x axis is in nM
[12] = target: T1, Epidermal growth factor receptor (EGFR) …; test: cell-based ELISA on A-431 cells, anti-IgG1-HRP, signal at 450 nm; EC50 table gives no unit, x axis is in nM; the table is identical to that of Fig. 10C and does not fit the drawn curve
Description: as §1

[13] = target: Recombinant human Vγ9Vδ2-Fc fusion protein (human) (UniProt Q99603); test: BLI (Octet RED96), Vγ9Vδ2-Fc captured on anti-human Fc biosensors, VHH as analyte, 1:1 global fit, mean of at least three measurements +/- SD

For “bispecific VHH 7D12-5C8 (non-humanized) (bispecific antibody)”, the EC50 cytotoxicity (pM) [1] was 9 pM and the EC50 degranulation (pM) [2] was 10 pM.

B1: bispecific VHH 7D12var8-5C8var1-Y105F (bispecific antibody)
chain: EVQLVESGGGSVQPGGSLRLSCAASGRTSRSYGMGWFRQAPGKEREFVSGISWRGDSTGYADSVKGRFTISRDNAKNTVDLQMNSLRAEDTAVYYCAAAAGSAWYGTLYEYDYWGQGTLVTVSSGGGGSEVQLLESGGGSVQPGGSLRLSCAASGRPFSNYAMSWFRQAPGKEREFVSAISWSGGSTSYADSVKGRFTISRDNSKNTLYLQMNSLRAEDTAVYYCAAQFSGADFGFGRLGIRGYEYDYWGQGTQVTVSS
B1 was tested, and the “EC50 cytotoxicity (pM)” value [3] was 2.5 pM and the EC50 degranulation (pM) [4] was 11 pM.

B2: 7D12var8-5C8var1 (Y105F)-Fc (bispecific antibody, V domains shown)
V domain 1: EVQLVESGGGSVQPGGSLRLSCAASGRTSRSYGMGWFRQAPGKEREFVSGISWRGDSTGYADSVKGRFTISRDNAKNTVDLQMNSLRAEDTAVYYCAAAAGSAWYGTLYEYDYWGQGTLVTVSS
V domain 2: EVQLLESGGGSVQPGGSLRLSCAASGRPFSNYAMSWFRQAPGKEREFVSAISWSGGSTSYADSVKGRFTISRDNSKNTLYLQMNSLRAEDTAVYYCAAQFSGADFGFGRLGIRGYEYDYWGQGTQVTVSS
notes: Heterodimer of two VHH-Fc chains: 7D12var8-Fc (hole) and 5C8var1(Y105F)-Fc (knob); Human IgG1 Fc with L234F and L235E; In both entries the last residue X3 is K or absent; copies: 1 + 1
B2 was tested, and the EC50 for Vγ9Vδ2 T cell degranulation (CD107a) [2] was 40 to 90 pM, the “EC50 (read off the curve)” value [5] was roughly 1 nM and the EC50 [6] was 3 nM. For the same molecule, the EC50 [7] was 6.45 nM, the EC50 [8] was 7.29 nM and the EC50 [9] was roughly 7 nM. It also gave an EC50 [10] of 3.11 nM, an EC50 [11] of 3.99 nM and an EC50 [12] of 7.29 nM.

B3: VHH 5C8var1-Y105S (VHH)
VHH: EVQLLESGGGSVQPGGSLRLSCAASGRPFSNYAMSWFRQAPGKEREFVSAISWSGGSTSYADSVKGRFTISRDNSKNTLYLQMNSLRAEDTAVYYCAAQFSGADSGFGRLGIRGYEYDYWGQGTQVTVSS
Work on B3 yielded a Kd [13] of 1.59 nM.

B4: VHH 5C8var1 (VHH)
VHH: EVQLLESGGGSVQPGGSLRLSCAASGRPFSNYAMSWFRQAPGKEREFVSAISWSGGSTSYADSVKGRFTISRDNSKNTLYLQMNSLRAEDTAVYYCAAQFSGADYGFGRLGIRGYEYDYWGQGTQVTVSS
modifications: Y105 partly sulfated (shown for 5C8 and for 1D12var5-5C8var1; 5C8var1 gave two HP-SEC peaks)
In the case of B4, the Kd [13] is reported as 0.81 nM.

B5: VHH 5C8var1-Y105F (VHH)
VHH: EVQLLESGGGSVQPGGSLRLSCAASGRPFSNYAMSWFRQAPGKEREFVSAISWSGGSTSYADSVKGRFTISRDNSKNTLYLQMNSLRAEDTAVYYCAAQFSGADFGFGRLGIRGYEYDYWGQGTQVTVSS
B5 gave a Kd [13] of 0.78 nM.
